This note sets out measurements from publication doi:10.1101/2025.09.22.677689.

In the assay the target is preformed TPX2-NLS - importin α ΔIBB complex (mouse) (UniProt A2APB8). Briefly: pull-down; competition: GST-TPX2 NLS on magnetic glutathione beads first incubated with importin α ΔIBB, washed, then increasing concentrations of CFDP1 proteins in transfer buffer, 1 h at 4°C; SDS-PAGE with Coomassie stain or immunoblot. (In general: Immunoblotting shows a protein as a band on a membrane.)

Turning to “CFDP1 basic C-terminal fragment (aa 150-295), HIS tagged (from UniProt O88271 150-295) (domain or fragment)”, the percent decrease of TPX2 bound importin α amounted to 11%.
